Series [1] deals with the molecule itself. As to the kind of experiment: native gel or EMSA; blue native PAGE of purified CERT (10 ng), 1% digitonin, 0.25% CBB G-250, 4-16% Bis-Tris gel; anti-HA western blot.
Series [2] deals with the molecule itself. As to the kind of experiment: cross-linking; purified CERT (10.8 ng in 30 μL of 50 mM HEPES-NaOH pH 7.4) with EGS (0.1-1.6 mM) on ice for 2 h; SDS-PAGE (6%) and anti-HA western blot.

Several values for one entry are separate records, joined by “and”; a condition that tells them apart may be missing. Equal entries are not always repeated.

B1: Recombinant human CERT S132A purified from Sf21 cells (natural protein, UniProt Q9Y5P4-2 1-598, looked up)
chain: MSDNQSWNSSGSEEDPETESGPPVERCGVLSKWTNYIHGWQDRWVVLKNNALSYYKSEDETEYGCRGSICLSKAVITPHDFDECRFDISVNDSVWYLRAQDPDHRQQWIDAIEQHKTESGYGSESSLRRHGAMVSLVSGASGYSATSTSSFKKGHSLREKLAEMETFRDILCRQVDTLQKYFDACADAVSKDELQRDKVVEDDEDDFPTTRSDGDFLHSTNGNKEKLFPHVTPKGINGIDFKGEAITFKATTAGILATLSHCIELMVKREDSWQKRLDKETEKKRRTEEAYKNAMTELKKKSHFGGPDYEEGPNSLINEEEFFDAVEAALDRQDKIEEQSQSEKVRLHWPTSLPSGDAFSSVGTHRFVQKVEEMVQNHMTYSLQDVGGDANWQLVVEEGEMKVYRREVEENGIVLDPLKATHAVKGVTGHEVCNYFWNVDVRNDWETTIENFHVVETLADNAIIIYQTHKRVWPASQRDVLYLSVIRKIPALTENDPETWIVCNFSVDHDSAPLNNRCVRAKINVAMICQTLVSPPEGNQEISRDNILCKITYVANVNPGGWAPASVLRAVAKREYPKFLKRFTSYVQEKTAGKPILF
notes: Ceramide transport protein CERT (GPBPΔ26), human, printed length 598 amino acids; The template plasmid is named pBS/nHAcFL-CERT, which may mean a further C-terminal FLAG tag; Mainly a homo-trimer by cross-linking and blue native PAGE; not shown: HA, N-terminal, kept
Turning to B1, in series [1], the “stoichiometry N” value was 3.

B2: Recombinant human CERT S132A/13A purified from Sf21 cells (natural protein, UniProt Q9Y5P4-2 1-598, looked up)
chain: MSDNQSWNSSGSEEDPETESGPPVERCGVLSKWTNYIHGWQDRWVVLKNNALSYYKSEDETEYGCRGSICLSKAVITPHDFDECRFDISVNDSVWYLRAQDPDHRQQWIDAIEQHKTESGYGSESSLRRHGAMVSLVSGASGYSATSTSSFKKGHSLREKLAEMETFRDILCRQVDTLQKYFDACADAVSKDELQRDKVVEDDEDDFPTTRSDGDFLHSTNGNKEKLFPHVTPKGINGIDFKGEAITFKATTAGILATLSHCIELMVAAEDSWQAALDAETEAAAATEEAYANAMTELAAASHFGGPDYEEGPNSLINEEEFFDAVEAALDRQDKIEEQSQSEKVRLHWPTSLPSGDAFSSVGTHRFVQKVEEMVQNHMTYSLQDVGGDANWQLVVEEGEMKVYRREVEENGIVLDPLKATHAVKGVTGHEVCNYFWNVDVRNDWETTIENFHVVETLADNAIIIYQTHKRVWPASQRDVLYLSVIRKIPALTENDPETWIVCNFSVDHDSAPLNNRCVRAKINVAMICQTLVSPPEGNQEISRDNILCKITYVANVNPGGWAPASVLRAVAKREYPKFLKRFTSYVQEKTAGKPILF
notes: Ceramide transport protein CERT (GPBPΔ26), human, printed length 598 amino acids; The template plasmid is named pBS/nHAcFL-CERT, which may mean a further C-terminal FLAG tag; also called S132/13A; not shown: HA, N-terminal, kept
On to B2, for which the “stoichiometry N” value in series [2] was 2 and 3.

One may read the stoichiometry N as the number of molecules, sites or subunits per partner or assembly.

The values above are taken from article PMC9368931, “Involvement of a Cluster of Basic Amino Acids in Phosphorylation-Dependent Functional Repression of the Ceramide Transport Protein CERT” (International Journal of Molecular Sciences, 2022).
